Assay results as given in the RNAGym collection of RNA variant scans (doi:10.1073/pnas.2313332121).
Fewer inactive variants are shown than the library holds.

B1: TPR 5TU (parent)
chain: GGAUCUUCUCGAUCUAACAAAAAAGACAAAUCUGCCACAAAGCUUGAGAGCAUCUUCGGAUGCAGAGGCGGCAGCCUUCGGUGGCGCGAUAGCGCCAACGUUCUCAACUAUGACACGCAAAACGCGUGCUCCGUUGAAUGGAGUUUAUCAUG

Variants of: B1
Assay: polymerase ribozyme fitness, log enrichment relative to wild type (log ratio); higher = more active; in vitro selection for triplet polymerase activity
How it was run: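 Fitness compares each genotype's enrichment to that of the wild type on a logarithmic scale, averaging replicates with inverse-variance weights. The logarithm is base 2. Enrichment came from Illumina sequencing of input and output libraries after one triplicate round of in vitro selection, which included frozen incubation at −7 °C, of PCR-built, transcribed mutant libraries of each subunit of a heterodimeric triplet polymerase ribozyme. Only genotypes with ≥10 input reads and ≥1 read per output were kept.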

Row | Variant | polymerase ribozyme fitness (log ratio)
1 | A28U A52G C85U G88A C95G U109G | ≤ -4.2
2 | A28G G94A | -3.42
3 | A28U A60C C87A C96U | ≤ -4.2
4 | C27U C99G G133U G141A C149G | ≤ -4.2
5 | A29C G58U | -4.16
6 | A29C G58C | -3.97
7 | A28G C93U C105G | ≤ -4.2
8 | A28U G50A U55C U139G | ≤ -4.2
9 | A28C A30C A41U C57U A107C | ≤ -4.2
10 | C27U G92C U146C U151G | ≤ -4.2
11 | A28U A39C A98G G143U U144G U146G | ≤ -4.2
12 | A29C A49U A91U C118G C149A | ≤ -4.2
13 | A28U G62A G65A G94A G136A | ≤ -4.2
14 | A28U G92A G140C | -3.61
15 | A28G U31G C36A U56A C95A G141C | -3.69
16 | A28G G80A G141A | ≤ -4.2
17 | A28G C43U A113U G117A A138G | ≤ -4.2
18 | A28G U53A | -3.62
19 | A28U G58U C79G G92U | ≤ -4.2
20 | A28G A60C C76G | ≤ -4.2
21 | A28G U53G C85A U104G A106G A138U A147G | ≤ -4.2

Row | Variant | polymerase ribozyme fitness (log ratio)
22 | A28C C51A C76G G83C A110U U127G | ≤ -4.2
23 | A28U C87G C118G | ≤ -4.2
24 | A29C C36A U55A U61G C87A | ≤ -4.2
25 | A29G C96A | -3.46
26 | A28U A41C C75U G81A C103G C149G | ≤ -4.2
27 | A29C A89G C95G U139C G140A G141U A142C | ≤ -4.2
28 | A29C G50U G81A C95A G133U | ≤ -4.2
29 | A29C U33G G34U G50C G84C G100C C108A A113U G141U | ≤ -4.2
30 | A28U A47C | -3.9
31 | C27U U33G C95U | -3.46
32 | A28U A37C C87A G117A G140C | ≤ -4.2
33 | A29G C105G U146G | ≤ -4.2
34 | A29C A39U A52C U101G C125G G126A G143U U146C | ≤ -4.2
35 | C27U G62A A97U A98C | -3.33
36 | A29C A39U C96A | ≤ -4.2
37 | C27U U33A G92C | -3.92
38 | A28C C54A C95A C105U U145A | ≤ -4.2
39 | A28G G50C G81C C95G C96U A98C A113U G143U | ≤ -4.2
40 | A29G C87A A110C G141U | ≤ -4.2
41 | A28U G42C U44C C75G C96A A115G | ≤ -4.2
42 | A29C A40U A41C G84A G141A | ≤ -4.2

Row | Variant | polymerase ribozyme fitness (log ratio)
43 | A29G C51G U56A C93A C95G C149G G152A | ≤ -4.2
44 | A28U A39G A66G C76A G81C | ≤ -4.2
45 | A28U C79A A91U C108G U130G G143C | ≤ -4.2
46 | A28C U44A G59A C125A G143C | ≤ -4.2
47 | A28U C54U | -3.76
48 | A28C G65U G68A A91U | ≤ -4.2
49 | A28U A52C A97U A137U U139C | ≤ -4.2
50 | A28G U55G G58C G88C G140U | ≤ -4.2
51 | A28G G34A G83C C118G | ≤ -4.2
52 | A28U U53G A66G C69A C79G G94C C108G C129U A137U | ≤ -4.2
53 | A28U G50C C76U C85U C103A C118U U144G | ≤ -4.2
54 | A28U C54G C72U | ≤ -4.2
55 | A29G C93G A115U C116G C149G | ≤ -4.2
56 | A28U C57U G84U G94A A98U C116A A147C | ≤ -4.2
57 | A29C A52G G83C A106C | ≤ -4.2
58 | A28C U78G C96G U148G | ≤ -4.2
59 | A28U G48U | ≤ -4.2
60 | C27U G62U A120C A122U | -2.46
61 | A28C C36U A39U U55A A66U C79U A91U C93A | ≤ -4.2
62 | A29G C57A G58U C95U C125G | ≤ -4.2
63 | A29C A30U A97U C103U C116G G133A | ≤ -4.2

Row | Variant | polymerase ribozyme fitness (log ratio)
64 | A29G A41C | -3.63
65 | A29G C76U G92A C123G G143U | ≤ -4.2
66 | A29C A49G C87A A150G | ≤ -4.2
67 | A29G A47C G70A C85G A89U A138C A142U | ≤ -4.2
68 | A29G C51U G62A G84A U139G | ≤ -4.2
69 | A28G G58U | ≤ -4.2
70 | A28G G83C | -4.1
71 | A28C G46C G84A C85U | ≤ -4.2
72 | C27U U55A G70C A91U A97U A106G | ≤ -4.2
73 | A28U A66C G83U A122G | -4.16
74 | A28U U55A | -4.13
75 | A28U A64G A66U A73U G81U C95U C114U C149A | ≤ -4.2
76 | A28U A29G C75G G81U C85G A106C C129A | ≤ -4.2
77 | A28G A52U G84A C103A | ≤ -4.2
78 | A28U C35G C54A C79A G80C A89C G94A | ≤ -4.2
79 | A28C G80C U82G G88C U130C | ≤ -4.2
80 | A28C G46C C76G U82A A89C G124A | ≤ -4.2
81 | A29C G59A G94U U102A A106G G141A | ≤ -4.2
82 | C27U G92U G100A A106C G124C A138G | ≤ -4.2
83 | A28G G42C C43A U55A | ≤ -4.2
84 | A28C G67A G100C A119G C131U U145G | ≤ -4.2
